Assay results reported in the supplement of paper PMC7877785.
± gives the uncertainty stated by the source.

Test: self-splicing fitness, log relative to wild type (ln ratio); higher = more splicing; Tetrahymena group I intron in knt gene, E. coli kanamycin selection, DiMSum; sequences stand for … in CUCUCU…GGAGGGAAAAGUUAUCAGGCAUGCACCUGGUAGCUAGUCUUUAAACCAAUAGAUUGCAUCGGUUUAAAAGGCAAGACCGUCAAAUUGCGGGAAAGGGGUCAACAGCCGUUCAGUACCAAGUCUCAGGGGAAACUUUGAGAUGGCCUUGCAAAGGGUAUGGUAAUAAGCUGACGGACAUGGUCCUAACCACGCAGCCAAGUCCUAAGUCAACAGAUCUUCUGUUGAUAUGGAUGCAGUUCACAGACUAAAUGUCGGUCGGGGAAGAUGUAUUCUUCUCAUAAGAUAUAGUCGGACCUCUCCUUAAUGGGAGCUAGCGGAUGAAGUGAUGCAACACUGGAGCCGCUGGGAACUAAUUUGUAUGCGAAAGUAUAUUGAUUAGUUUUGGAGUACUCGUGGUCG
In short: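 Colonies from six replicate transformations of E. coli BL21(DE3) were pooled and amplicon-sequenced on an Illumina HiSeq 2500. The library placed an intron with all eight P1ex-region nucleotides randomised inside the knt kanamycin-resistance gene on pET-22b(+), and cells grew overnight at 37°C or 30°C on LB agar with or without 25 μg/mL kanamycin (plus 100 μg/mL carbenicillin, 50 μM IPTG, 0.2% rhamnose). Fitness is the DiMSum error-weighted combination of wild-type-normalised replicate fold changes, kanamycin versus none.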

Row | Sequence | self-splicing fitness (ln) (30 °C) | self-splicing fitness (ln) (37 °C)
1 | GAGUAGCAAUAUUACGCACU | -3.18 ± 0.19 | -1.34 ± 0.36
2 | GAGUAGCAAUAUUACGCAGU | -3.14 ± 0.39 | -2.03 ± 0.22
3 | GAGUAGCAAUAUUACGCCCG | -0.892 ± 0.21 | -1.03 ± 0.31
4 | GAGUAGCAAUAUUACGCCUC | -2.22 ± 0.24 | -3.01 ± 0.47
5 | GAGUAGCAAUAUUACGCGGU | -3.68 ± 0.31 | -2.78 ± 0.48
6 | GAGUAGCAAUAUUACGGAUU | -1.41 ± 0.073 | -0.46 ± 0.095
7 | GAGUAGCAAUAUUACGGCGU | -0.448 ± 0.17 | 0.221 ± 0.18
8 | GAGUAGCAAUAUUACGUAAG | -2.82 ± 0.14 | 0.0773 ± 0.14
9 | GAGUAGCAAUAUUACGUAGU | -4.34 ± 0.31 | -2.68 ± 0.2
10 | GAGUAGCAAUAUUACGUAUA | -2.4 ± 0.29 | -1.52 ± 0.22
11 | GAGUAGCAAUAUUACGUAUC | -3.05 ± 0.14 | -0.698 ± 0.11
12 | GAGUAGCAAUAUUACGUCAC | -3.28 ± 0.24 | 
13 | GAGUAGCAAUAUUACGUCGC | -1.31 ± 0.22 | -1.42 ± 0.26
14 | GAGUAGCAAUAUUACGUUAC | -4.57 ± 0.33 | -1.57 ± 0.17
15 | GAGUAGCAAUAUUACGUUGG | -3.06 ± 0.25 | -3.3 ± 0.46
16 | GAUAAGCAAUAUUACGACAG | -3.46 ± 0.24 | -1.89 ± 0.23
17 | GAUAAGCAAUAUUACGACGA | -0.165 ± 0.12 | -0.626 ± 0.11
18 | GAUAAGCAAUAUUACGAGGC |  | -2.76 ± 0.44
19 | GAUAAGCAAUAUUACGAGUC | -3.11 ± 0.27 | -1.32 ± 0.17
20 | GAUAAGCAAUAUUACGAGUU | -2.26 ± 0.14 | -1.27 ± 0.16
21 | GAUAAGCAAUAUUACGAUGA | -0.666 ± 0.097 | -0.376 ± 0.11

Row | Sequence | self-splicing fitness (ln) (30 °C) | self-splicing fitness (ln) (37 °C)
22 | GAUAAGCAAUAUUACGCAAG | -2.51 ± 0.25 | -1.34 ± 0.21
23 | GAUAAGCAAUAUUACGCUAC | -2.85 ± 0.4 | -2.31 ± 0.34
24 | GAUAAGCAAUAUUACGGAUG | -2.76 ± 0.11 | -1 ± 0.11
25 | GAUAAGCAAUAUUACGGGAG | -4.18 ± 0.25 | -2.34 ± 0.15
26 | GAUAAGCAAUAUUACGGGCG | -1.41 ± 0.11 | -0.837 ± 0.13
27 | GAUAAGCAAUAUUACGGUAA | -2.64 ± 0.22 | -1.46 ± 0.15
28 | GAUAAGCAAUAUUACGGUCG | -0.842 ± 0.1 | 0.117 ± 0.13
29 | GAUAAGCAAUAUUACGUAUC | -3.9 ± 0.18 | -2.67 ± 0.27
30 | GAUAAGCAAUAUUACGUCCG | -4.76 ± 0.36 | -2.1 ± 0.22
31 | GAUAAGCAAUAUUACGUGCU | -2.32 ± 0.18 | -1.71 ± 0.19
32 | GAUAAGCAAUAUUACGUUAC | -2.69 ± 0.2 | -2.09 ± 0.35
33 | GAUCAGCAAUAUUACGAACU | -0.585 ± 0.056 | 0.06 ± 0.073
34 | GAUCAGCAAUAUUACGAAUG | -1.15 ± 0.075 | -0.0569 ± 0.11
35 | GAUCAGCAAUAUUACGACAU | -0.0993 ± 0.012 | 0.102 ± 0.032
36 | GAUCAGCAAUAUUACGACCU | -0.708 ± 0.089 | -0.346 ± 0.1
37 | GAUCAGCAAUAUUACGAGGG | -1.99 ± 0.11 | -2.17 ± 0.18
38 | GAUCAGCAAUAUUACGAGUG | -1.2 ± 0.06 | -1.21 ± 0.079
39 | GAUCAGCAAUAUUACGAUGU | -0.363 ± 0.062 | 0.0452 ± 0.077
40 | GAUCAGCAAUAUUACGCAGA | -2.13 ± 0.14 | -0.891 ± 0.16
41 | GAUCAGCAAUAUUACGCAGU | -1.74 ± 0.083 | -0.88 ± 0.12
42 | GAUCAGCAAUAUUACGCCAG | -3.32 ± 0.3 | -1.93 ± 0.31
